Tested on: HPV16
Experiment: HPV16 PsV infection of HaCaT cells, luciferase assay
Format: cell-based, human papillomavirus
Experimental: FIG. 2. […] (A, B) Immunoblot for syndecan-1 (polyclonal syndecan-1 Ab) after 24 hours at 37° C. in CM (A) or post starvation in SFM and after six hours at 37° C. in Tyrode's Buffer (B); immunoblot for HPV16 L1 released into CM post virus binding for indicated times (C) or 24 hours (E). […] Cells were untreated (U) or pre-treated with BM or MM for one hour, then exposed to HPV16 PsV in the presence of inhibitors in CM. Infection was assayed by quantifying luciferase levels at 24 hours p.i. (F). Data are represented as mean±SEM of three experiments. (G-H) IC50 of HPV16 infectivity inhibition by MMIP inhibitors batimastat and mariniastat. […] HPV16 infection was measured with luciferase assay. […]
FIG. 7. […] Cells were exposed to HPV16 PsV at 100 vge/cell for one hour at 4° C., then washed extensively and shifted to 37° C. in the presence of the indicated inhibitor in CM for 24 hours at which time they were analyzed for luciferase expression. […] (B-C) EGFR knockdown was accomplished using siRNA to EGFR and the percent of EGFR protein remaining in EGFR-siRNA transfected HaCaT cells was determined by immunoblot and compared by densitometry to EGFR levels in cells transfected with a negative control siRNA at 48 hours post transfection. Four separate transfections were analyzed (B) and HPV16 PsV infection levels were measured at 24 hours post infection (48 hours post transfection) in each (C). […]

B1: TIMP3: blocks MMP activity (protein, UniProt P35625 24-211, looked up)
Metalloproteinase inhibitor 3: CTCSPSHPQDAFCNSDIVIRAKVVGKKLVKEGPFGTLVYTIKQMKMYRGFTKMPHVQYIHTEASESLCGLKLEVNKYQYLLTGRVYDGKMYTGLCNFVERWDQLTLSQRKGLNYRYHLGCNCKIKSCYYLPCFVTSKNECLWTDMLSNFGYPGYQSKHYACIRQKGGYCSWYRGWAPPDKSIINATDP
HPV16 infection of HaCaT cells (in words) (CM, luciferase 24 hours p.i.): can prevent HPV16 infection

B2: KGF: keratinocyte growth factor, GFR ligand (protein, UniProt P21781 32-194, looked up)
Fibroblast growth factor 7: CNDMTPEQMATNVNCSSPERHTRSYDYMEGGDIRVRRLFCRTQWYLRIDKRGKVKGTQEMKNNYNIMEIRTVAVGIVAIKGVESEFYLAMNKEGKLYAKKECNEDCNFKELILENHYNTYASAKWTHNGGEMFVALNQKGIPVRGKKTKKEQKTAHFLPMAIT
restoration of HPV16 infectivity in SFM by added factor (serum-starved HaCaT, HPV16 bound in SFM, 24 hours in SFM plus factor, compared to CM): partially restore infection levels
